Results reported in PMC10936178 (mBio, 2024).

How the values were obtained:
[1] = biological target: PvS1FL (full-length Plasmodium vivax subtilisin-like protease 1, Sub1, autoprocessed with bound prodomain) (UniProt E6Y8B9); test: analytical ultracentrifugation, sedimentation equilibrium (Beckman Coulter XL-I, absorbance at 280 nm); settings: 20°C, 150 mM NaCl, 10 mM CaCl2, pH 5: 50 mM NaCit (sodium citrate), pH 8: 50 mM Tris
[2] = biological target: the molecule itself; test: AUC; sedimentation equilibrium, pH 5 (50 mM NaCit pH 5, 150 mM NaCl, 10 mM CaCl2), 20°C, 2, 5 and 10 µM protein, 9,000, 13,000 and 16,000 rpm, single-species model

Q: “PvS1FL (full-length Plasmodium vivax subtilisin-like protease 1, Sub1, autoprocessed with bound prodomain)” was tested. Which “apparent molecular weight (single-species fit); oligomeric state” value ([1]; pH 5) did it give?
A: Its value is 135.8 ± 2.8 kDa (stable homodimer; theoretical monomer 67.71 kDa).

Q: What about the “apparent molecular weight (single-species fit); oligomeric state” value ([1]; pH 8) of the same molecule?
A: The value was 67.9 ± 1.1 kDa (monomer; theoretical monomer 67.71 kDa).

B1: full-length Plasmodium vivax Sub1 (PvS1FL), recombinant, autocleaved at Asp202 (enzyme)
chain 1: GDILPNEGKKEKDDVHKIISELRFLQKVETILESSNMSVSDVEADANAYNPDRDAPKEELQKLQDQQETPSKQPNNLRNSPQKRAEKKESPGKNKKSLRLIVSENHATSPSFFEESLLQEDVVSFIQSKGKLSNLKNLKSMIIDLNSDMTDEELAEYISLLERKGALIESDKLVGAD
chain 2: DVSLASVKDAVRRGESSVNWGKLRSTMLEVPSGESPPSHAASSGSPFDDDDDLLSEAALHREEAHLAGSKTTKGYKFNDEYRNLQWGLDLARLDETQDLINANRVSVTKICVIDSGIDYNHPDLRNNIDVNVKELHGRKGVDDDSNGVVDDVYGANFVNNSGDPMDDNYHGTHVSGIISAVGNNGIGIVGVDGHSKLVICKALDQHKLGRLGDMFKCIDYCISRQAHMINGSFSFDEYSNIFNASVEHLRSLGILFFVSASNCAHDKLSKPDIAKCDLAVNHRYPPILSKTHNNVIAVANLKRDLDESYSLSVNSFYSNIYCQLAAPGTNIYSTTPMNNYRKLNGTSMASPHVAAIASIVRSINPNLTYLQIVEILRNAIVKLPSLTERVSWGGYVDILRAVNLAIDSKAAPYIKSHSWFRWKQGSRR
notes: Prodomain of P. vivax Sub1 up to the primary maturation site Asp202; Catalytic domain of P. vivax Sub1, from the residue after the primary maturation site Asp202 to the C-terminus
Q: For B1, which “stoichiometry N” value [2] is on record?
A: The value was 2.
